From patent publication US20240301031A1 (JIANGSU HENGRUI PHARMACEUTICALS, published 2024) come the findings set out here.

The term EC50 denotes the concentration at which the effect is half-maximal. A word on the IC50: it is the concentration needed to halve the response being measured. As usually defined, the Kd is a measure of binding affinity in units of concentration. A word on the koff: it is the first-order rate constant of dissociation. A word on the kon: it is the rate constant with which the complex forms.

Experiment [1] concerns the target T1, human APRIL (5860-AP-010/CF, R&D Systems) (human, UniProt O75888 115-250, limits assumed).
T1 construct: Bought protein
T1 sequence (looked up): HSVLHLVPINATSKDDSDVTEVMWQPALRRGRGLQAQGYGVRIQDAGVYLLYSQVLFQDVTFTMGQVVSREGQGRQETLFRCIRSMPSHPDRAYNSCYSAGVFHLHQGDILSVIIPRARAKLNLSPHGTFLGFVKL
Briefly: ELISA, APRIL coated. For orientation: ELISA stands for enzyme-linked immunosorbent assay.

For experiment [2], the target named is T2, IL-23 (R&D Systems, 1290-IL-010) (UniProt Q9NPF7 20-189; P29460 23-328).
T2 sequence (looked up) 1: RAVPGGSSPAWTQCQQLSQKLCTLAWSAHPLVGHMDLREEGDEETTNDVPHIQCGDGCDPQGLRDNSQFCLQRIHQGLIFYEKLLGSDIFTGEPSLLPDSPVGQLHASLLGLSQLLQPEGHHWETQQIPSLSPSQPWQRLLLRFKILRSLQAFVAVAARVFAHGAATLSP
T2 sequence (looked up) 2: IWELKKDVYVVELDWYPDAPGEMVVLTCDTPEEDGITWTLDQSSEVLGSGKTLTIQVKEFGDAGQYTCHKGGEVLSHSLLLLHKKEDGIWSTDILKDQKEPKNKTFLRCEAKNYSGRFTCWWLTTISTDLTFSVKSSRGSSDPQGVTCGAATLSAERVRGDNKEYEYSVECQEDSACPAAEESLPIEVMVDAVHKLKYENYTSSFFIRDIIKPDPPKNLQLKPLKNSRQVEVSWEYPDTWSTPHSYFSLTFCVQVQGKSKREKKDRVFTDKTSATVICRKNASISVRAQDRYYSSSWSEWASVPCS
Briefly: cell-based or functional assay.

Experiment [3] deals with T3, IL-12/23 p40 (Sino biological, 10052-H08H) (UniProt P29460 23-328).
T3 construct: Bought protein
T3 sequence (looked up): T2 sequence (looked up) 2
Nature of the experiment: ELISA, IL-12/23 p40 coated, sample titrated. Here is the method: The binding activity of the antibodies or fusion proteins for BAFF, APRIL, and IL-12/23 p40 was assayed by the ELISA method (coating an antigen protein). The specific procedures were as follows:
A BAFF (Sino biological, 10056-HNCH), APRIL (R&D Systems, 5860-AP-010/CF), or IL-12/23 p40 (Sino biological, 10052-H08H) protein was diluted to 1 μg/mL with a PBS (BasalMedia, B320) buffer at pH 7.4, and added to a 96-well microplate (Corning, 3590) at 100 μL/well. The plate was incubated at 4° C. overnight. After the liquid was discarded, 300 μL of 5% skim milk (BD, 232100) diluted with PBS was added to each well for blocking, and the plate was incubated at 37° C. for 2 h. After the blocking was completed, the blocking solution was discarded, and the plate was washed 3 times with a PBST buffer (PBS at pH 7.4 containing 0.1% tween-20). 100 μL of test antibody or fusion protein solution diluted in a gradient was added to each well, and the plate was incubated at 37° C. for 1 h. After the incubation was completed, the plate was washed 3 times with PBST. […] The plate was washed 3 times with PBST. […] The plate was read for absorbance values at 450 nm on a microplate reader, the binding curves of the antibodies to an antigen were fitted with software, and the EC₅₀ values were calculated.

The target in experiment [4] is T3, IL-12/23 p40 (Sino biological, …). Briefly: competition ELISA: biotin-labeled p40 to coated IL-12Rβ1. Here is the method: (§1) A receptor protein was diluted to 2 μg/mL with PBS at pH 7.4 (BasalMedia, B320) and added to a 96-well microplate (Corning, 3590) at 100 μL/well. The plate was incubated at 4° C. overnight. After the liquid was discarded, 200 μL of 1% Casein blocking solution (Thermo, 37528) was added to each well for blocking, and the plate was incubated at 37° C. for 2 h. After the blocking was completed, the blocking solution was discarded, and the plate was washed 3 times with a PBST buffer (PBS at pH 7.4 containing 0.1% tween-20) for later use. A biotin-labeled ligand protein at a fixed concentration was mixed with the antibody or fusion protein diluted in gradient, pre-incubated at 37° C. for 30 min, and added to a blocked microplate. The plate was incubated at 37° C. for 1.5 h. After the incubation was completed, the plate was washed 3 times with PBST. 100 μL of streptavidin-HRP (Invitrogen, 434323, diluted at a ratio of 1:4000) was added to each well, and the plate was incubated at 37° C. for 1 h. The supernatant was removed, and the plate was washed 3 times with PBST. […] The plate was read for absorbance values at 450 nm on a microplate reader, the curves for the inhibition of the binding of the ligands to the receptors were fitted with software, and the IC₅₀ values were calculated. […]

The target of experiment [5] is T4, human BAFF (10056-HNCH, Sino biological) (human, UniProt Q9Y275 134-285).
T4 construct: Bought protein
Briefly: ELISA, BAFF coated.

Experiment [6] deals with T5, cynomolgus monkey p40 (10215-CL, R&D Systems) (cynomolgus monkey).
T5 construct: Bought protein
Nature of the experiment: SPR (Biacore), sample captured on Protein A, antigen flowed, 1:1 fit. The protocol: (§2) A certain amount of test sample was subjected to affinity capture by a biosensor chip Protein A (GE, 29127556), then antigens at a series of concentration gradients were allowed to flow on the surface of the chip. The reaction signals were detected in real time by using Biacore (GE, 8K) to obtain association and dissociation curves. After the dissociation was completed for each cycle, the biochip was washed and regenerated with a 10 mM glycine-hydrochloric acid solution at pH 1.5 (GE, BR-1003-54). The experimental data were fitted using BIAevaluation version 4.1, GE software with a 1:1 model to obtain affinity values. The related antigen proteins used in this assay are as follows: human IL-23 (CT048-H08H, Sino biological), human IL-12 (CT050-H08H, Sino biological), human BAFF (10056-HNCH, Sino biological), human APRIL (5860-AP-010/CF, R&D Systems), cynomolgus monkey p40 (10215-CL, R&D Systems), cynomolgus monkey BAFF (BAF-CM412B, Kactus), cynomolgus monkey APRIL (APR-CM410B, Kactus), mouse BAFF (BAF-M521y, Acro Biosystems), and mouse APRIL (7907-AP/CF, R&D Systems).
A general note: In SPR one partner is held on a chip, and binding of the other changes the refractive index at the surface.

For experiment [7], the target named is T6, human IL-12 (CT050-H08H, Sino biological) (human, UniProt P29459 23-219; P29460 23-328).
T6 construct: Bought heterodimer
T6 sequence (looked up) 1: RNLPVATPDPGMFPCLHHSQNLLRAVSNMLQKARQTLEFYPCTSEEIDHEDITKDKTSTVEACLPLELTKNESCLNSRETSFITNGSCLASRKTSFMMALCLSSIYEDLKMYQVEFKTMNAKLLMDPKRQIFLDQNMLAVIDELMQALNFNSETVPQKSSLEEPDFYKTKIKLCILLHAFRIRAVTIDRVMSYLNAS
T6 sequence (looked up) 2: T2 sequence (looked up) 2
The experiment is described as above. Here is the method:
as §2

Experiment [8] concerns the target T7, human IL-23 (CT048-H08H, Sino biological) (human, UniProt Q9NPF7 20-189; P29460 23-328).
T7 construct: Bought heterodimer
T7 sequence (looked up) 1: T2 sequence (looked up) 1
T7 sequence (looked up) 2: T2 sequence (looked up) 2
Described as above. The protocol: as §2

Experiment [9] addresses T3, IL-12/23 p40 (Sino biological, …). Nature of the experiment: ELISA, IL-12/23 p40 coated.
In experiment [10] the target is T4, human BAFF (10056-HNCH, Sino biological). Nature of the experiment: competition ELISA: BAFF-R coated on the plate, biotin-labelled BAFF at a fixed concentration pre-incubated with the diluted sample, streptavidin-HRP, OD450 (blocked ligand-receptor pair: BAFF/BAFF-R). The protocol:
as §1

Experiment [11] has the same target. Briefly: competition ELISA: biotin-labeled BAFF to coated TACI. Here is the method:
as §1

The target is the same in experiment [12]. Nature of the experiment: competition ELISA: biotin-labeled BAFF to coated BCMA. Here is the method:
as §1

Experiment [13] addresses BAFF (R&D Systems, 7537-BF) (UniProt Q9Y275 134-285). Nature of the experiment: cell-based or functional assay.
For experiment [14], the target named is T4, human BAFF (10056-HNCH, Sino biological). Nature of the experiment: SPR (Biacore), sample captured on Protein A, antigen flowed, 1:1 fit. The protocol: as §2
The target of experiment [15] is T8, cynomolgus monkey BAFF (BAF-CM412B, Kactus) (cynomolgus monkey, UniProt A0A2K5V2X4 134-285).
T8 construct: Bought protein
The description is as above. Here is the method: as §2

Experiment [16] concerns the target T9, mouse BAFF (BAF-M521y, Acro Biosystems) (mouse, UniProt Q9WU72 127-309).
T9 construct: Bought protein
The description is as above. Here is the method: as §2

B1: Ustekinumab (antibody, human IgG1, kappa, V domains shown)
VH: EVQLVQSGAEVKKPGESLKISCKGSGYSFTTYWLGWVRQMPGKGLDWIGIMSPVDSDIRYSPSFQGQVTMSVDKSITTAYLQWNSLKASDTAMYYCARRRPGQGYFDFWGQGTLVTVSS
VL: DIQMTQSPSSLSASVGDRVTITCRASQGISSWLAWYQQKPEKAPKSLIYAASSLQSGVPSRFSGSGSGTDFTLTISSLQPEDFATYYCQQYNIYPYTFGQGTKLEIKR
notes: Control antibody; also called anti-IL-12/IL-23 p40 subunit antibody ustekinumab
In the case of B1, the binding result in [1] and in [5] was “no binding” in each case. Moreover, the “IC50 (nM) for the inhibition of IL-23-induced IL-17 secretion” value in [2] was found to be 2.49 nM. Also, the EC50 in experiment [3] was 0.786 nM. In experiment [4], the IC50 turned out to be 2.08 nM. Besides, the Kd worked out at 0.254 nM in [6], 0.0387 nM in experiment [7] and 0.0844 nM in [8]. Further, the koff in experiment [6] was 0.000236 s⁻¹; in [7], 0.00018 s⁻¹; in experiment [8], 0.000107 s⁻¹. Also, the kon in [6] came to 931000 M⁻¹ s⁻¹; in experiment [7] it was 4.66e+06 M⁻¹ s⁻¹; in experiment [8], 1.26e+06 M⁻¹ s⁻¹.

B2: Belimumab (antibody, human IgG1, lambda, V domains shown)
VH: QVQLQQSGAEVKKPGSSVRVSCKASGGTFNNNAINWVRQAPGQGLEWMGGIIPMFGTAKYSQNFQGRVAITADESTGTASMELSSLRSEDTAVYYCARSRDLLLFPHHALSPWGRGTMVTVSS
VL: SSELTQDPAVSVALGQTVRVTCQGDSLRSYYASWYQQKPGQAPVLVIYGKNNRPSGIPDRFSGSSSGNTASLTITGAQAEDEADYYCSSRDSSGNHWVFGGGTELTVLG
notes: Marketed control antibody; also called anti-BAFF antibody belimumab
B2: the binding result in experiment [9] and in experiment [1] was “no binding” each time. For the same molecule, the “IC50 (read off the curve)” value in [10] was ~0.7 nM. Further, the IC50 in [11] was found to be 0.567 nM; in experiment [12] it was 0.458 nM. The “IC50 (nM) for the inhibition of the BAFF-induced B cell proliferation” value in experiment [13] worked out at 0.146 nM. Also, the Kd in experiment [14] came to 0.105 nM; in experiment [15] it was 0.459 nM; in experiment [16] it was 0.104 nM. The koff in experiment [14] amounted to 0.000171 s⁻¹; in experiment [15] it was 0.000221 s⁻¹; in experiment [16] it was 0.000144 s⁻¹. In addition, the kon in experiment [14] is 1.64e+06 M⁻¹ s⁻¹; in experiment [15], 481000 M⁻¹ s⁻¹; in experiment [16] it was 1.38e+06 M⁻¹ s⁻¹.
